Results on 28 proteins are retold here after patent US20210230570.

To fix the notation:
B1: FIXa-Y155F/R318Y/R338E/N346D/R403E/E410N (protein)
chain 1: YNSGKLEEFVQGNLERECMEEKCSFEEAREVFENTERTTEFWKQYVDGDQCESNPCLNGGSCKDDINSYECWCPFGFEGKNCELDVTCNIKNGRCEQFCKNSADNKVVCSCTEGYRLAENQKSCEPAVPFPCGRVSVSQTSKLTR
chain 2: VVGGEDAKPGQFPWQVVLNGKVDAFCGGSIVNEKWIVTAAHCVETGVKITVVAGEHNIEETEHTEQKRNVIRIIPHHNYNAAINKYNHDIALLELDEPLVLNSYVTPICIADKEYTNIFLKFGSGYVSGWGRVFHKGYSALVLQYLRVPLVDRATCLESTKFTIYDNMFCAGFHEGGRDSCQGDSGGPHVTEVEGTSFLTGIISWGEECAMKGKYGIYTKVSEYVNWIKNKTKLT
B2: FIXa-R318Y/R338E/Y345A/N346D/R403E/E410N (protein)
chain 1: B1 chain 1
chain 2: B1 chain 2 with Y165A
B3: FIXa-D104N/K106S/Y155F/K247N/N249S/N260S (protein)
chain 1: B1 chain 1 with D104N, K106S
chain 2: B1 chain 2 with K67N, N69S, N80S, Y138R, E158R, D166N, E223R, N230E
B4: FIXa-R318Y/R338E/T343R/N346Y/R403E/E410N (protein)
chain 1: B1 chain 1
chain 2: B1 chain 2 with T163R, D166Y
B5: FIXa-K247N/N249S/N260S (protein)
chain 1: B1 chain 1
chain 2: B1 chain 2 with K67N, N69S, N80S, Y138R, E158R, D166N, E223R, N230E
B6: FIXa-D104N/K106S/K247N/N249S/N260S (protein)
chain 1: B1 chain 1 with D104N, K106S
chain 2: B1 chain 2 with K67N, N69S, N80S, Y138R, E158R, D166N, E223R, N230E
B7: FIXa-R318Y/R338E/T343R/N346D/R403E/E410N (protein)
chain 1: B1 chain 1
chain 2: B1 chain 2 with T163R
B8: FIXa-R318Y/R338E/Y345A/R403E/E410N (protein)
chain 1: B1 chain 1
chain 2: B1 chain 2 with Y165A, D166N
B9: FIXa-Y155F/K247N/N249S/N260S (protein)
chain 1: B1 chain 1
chain 2: B1 chain 2 with K67N, N69S, N80S, Y138R, E158R, D166N, E223R, N230E
B10: FIXa-K247N/N249S/N260S/R318Y/R338E/R403E/E410N (protein)
chain 1: B1 chain 1
chain 2: B1 chain 2 with K67N, N69S, N80S, D166N
B11: FIXa-R318Y/R338E/N346Y/R403E/E410N (protein)
chain 1: B1 chain 1
chain 2: B1 chain 2 with D166Y
B12: FIXa-R318Y/R338E/R403E/E410N (protein)
chain 1: B1 chain 1
chain 2: B1 chain 2 with D166N
B13: FIXa R318Y/R338E/R403E/E410N/T412A (protein)
chain 1: B1 chain 1
chain 2: B1 chain 2 with D166N, T232A
B14: FIXa K228N/K247N/N249S/R318Y/R338E/R403E/E410N (protein)
chain 1: B1 chain 1
chain 2: B1 chain 2 with K48N, K67N, N69S, D166N
B15: FIXa R318Y/R338E/R403E/E410N/T412V (protein)
chain 1: B1 chain 1
chain 2: B1 chain 2 with D166N, T232V
B16: FIXa-K247N/N249S/R338E/T343R/R403E (protein)
chain 1: B1 chain 1
chain 2: B1 chain 2 with K67N, N69S, Y138R, T163R, D166N, N230E
B17: FIXa-R318Y/R338E/T343R/E410N (protein)
chain 1: B1 chain 1
chain 2: B1 chain 2 with T163R, D166N, E223R
B18: FIXa-K247N/N249S/R318Y/R338E/T343R/R403E/E410N (protein)
chain 1: B1 chain 1
chain 2: B1 chain 2 with K67N, N69S, T163R, D166N
B19: FIXa-R318Y/R338E/E410N (protein)
chain 1: B1 chain 1
chain 2: B1 chain 2 with D166N, E223R
B20: FIXa D104N/K106S/N260S/R318Y/R338E/R403E/E410N (protein)
chain 1: B1 chain 1 with D104N, K106S
chain 2: B1 chain 2 with N80S, D166N
B21: FIXa R318Y/R338E/R403E/T412A (protein)
chain 1: B1 chain 1
chain 2: B1 chain 2 with D166N, N230E, T232A
B22: FIXa R318Y/R338E/N346D/R403E/E410N (protein)
chain 1: B1 chain 1
chain 2: B1 chain 2
B23: FIXa R318Y/R338E/T412A (protein)
chain 1: B1 chain 1
chain 2: B1 chain 2 with D166N, E223R, N230E, T232A
B24: FIXa R318Y/R338E/E410N/T412V (protein)
chain 1: B1 chain 1
chain 2: B1 chain 2 with D166N, E223R, T232V
B25: FIXa Y155F/K228N/K247N/N249S (protein)
chain 1: B1 chain 1
chain 2: B1 chain 2 with K48N, K67N, N69S, Y138R, E158R, D166N, E223R, N230E
B26: FIXa N260S/R318Y/R338E/R403E/E410N (protein)
chain 1: B1 chain 1
chain 2: B1 chain 2 with N80S, D166N
B27: FIXa D104N/K106S/K228N/K247N/N249S (protein)
chain 1: B1 chain 1 with D104N, K106S
chain 2: B1 chain 2 with K48N, K67N, N69S, Y138R, E158R, D166N, E223R, N230E
B28: FIXa Y155F/N260S/R318Y/R338E/R403E/E410N (protein)
chain 1: B1 chain 1
chain 2: B1 chain 2 with N80S, D166N

Changes are numbered by the printed parent chain. In names and notes the source's numbering stands.

Factor X (FX), substrate zymogen, P00742, sequence (P00742 whole entry, looked up): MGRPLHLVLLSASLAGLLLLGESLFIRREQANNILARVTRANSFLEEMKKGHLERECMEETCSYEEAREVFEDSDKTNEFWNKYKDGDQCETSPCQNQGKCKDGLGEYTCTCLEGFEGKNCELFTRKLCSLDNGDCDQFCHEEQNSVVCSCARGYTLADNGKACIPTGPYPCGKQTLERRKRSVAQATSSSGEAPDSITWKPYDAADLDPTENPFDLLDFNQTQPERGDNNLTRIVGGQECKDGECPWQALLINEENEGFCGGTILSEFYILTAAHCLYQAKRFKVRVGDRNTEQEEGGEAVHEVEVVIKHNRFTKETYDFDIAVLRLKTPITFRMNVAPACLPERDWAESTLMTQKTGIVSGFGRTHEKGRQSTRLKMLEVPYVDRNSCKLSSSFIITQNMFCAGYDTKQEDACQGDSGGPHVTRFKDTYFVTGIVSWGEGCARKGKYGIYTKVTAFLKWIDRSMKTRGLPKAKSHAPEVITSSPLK
Factor X, P00742, sequence (P00742 whole entry, looked up): as above

The target in one data set is Antithrombin III (plasma purified human AT-III, Molecular Innovations), as AT-III/UFH complex.
The protein B1 displayed a K0.5-mut/K0.5-wt (against Catalyst Biosciences WT FIXa) above 517.
The same measure, in the same setting: to B2 belongs above 517; to B3, 35.8.
Same read-out and setting: to B4 belongs above 517.
Protein B5 came in with a K0.5-mut/K0.5-wt (against Catalyst Biosciences WT FIXa) of 8.1.
The protein B6 displayed a K0.5-mut/K0.5-wt (against Catalyst Biosciences WT FIXa) of 65.3.
On the same count and under the same terms, to B7 belongs above 517; to B8, above 517.
With B9, the K0.5-mut/K0.5-wt (against Catalyst Biosciences WT FIXa) is 7.9.
The same measure, in the same setting: to B10 belongs 288.
In turn, B11 had a K0.5-mut/K0.5-wt (against Catalyst Biosciences WT FIXa) above 517.

The target in a further data set is Factor X (FX), P00742.
Factor X (FX), P00742, sequence (P00742 whole entry, looked up): as above
With B12, the kcat/KM (M^-1s^-1), FX activation by FIXa in the Xase complex was 1.5e+08 M⁻¹ s⁻¹.
For B13, the KM – broadly, the concentration of substrate that gives half-maximal velocity – was 0.0335 µM.
With B1, the KM (nM); Catalytic activity of FIXa variants (KM) came out at 100 nM and the kcat of FX activation by FIXa in the Xase complex (FVIIIa, PC/PS vesicles, Ca2+) is 6.4 s⁻¹.
In the case of B2, the KM was 0.0565 µM and the kcat of FX activation by FIXa in the Xase complex (FVIIIa, PC/PS vesicles, Ca2+) is 1.2 s⁻¹.
Regarding B3, the KM (nM); Catalytic activity of FIXa variants (KM) is 68.5 nM and the kcat of FX activation by FIXa in the Xase complex (FVIIIa, PC/PS vesicles, Ca2+) was 0.5 s⁻¹.
On to B4, for which the KM amounted to 0.0158 µM and the kcat of FX activation by FIXa in the Xase complex (FVIIIa, PC/PS vesicles, Ca2+) turned out to be 4.6 s⁻¹.
As for B5, the KM (nM); Catalytic activity of FIXa variants (KM) amounted to 114 nM and the kcat of FX activation by FIXa in the Xase complex (FVIIIa, PC/PS vesicles, Ca2+) came to 3.3 s⁻¹.
In the same order, the values of B6 are 61.2 nM and 0.6 s⁻¹.
As for B14, the KM is 0.0558 µM.
For B15, the KM is 0.0443 µM.
For the protein B7, the KM worked out at 0.067 µM and the kcat of FX activation by FIXa in the Xase complex (FVIIIa, PC/PS vesicles, Ca2+) was 5.4 s⁻¹.
As for B16, the kcat (as a rule, the maximal rate divided by the concentration of active sites) stood at 14.6 s⁻¹ and the kcat/KM (as a rule, the second-order rate constant that governs catalysis at low substrate concentration) turned out to be 5.6e+08 M⁻¹ s⁻¹.
Regarding B17, the KM was 0.0164 µM and the kcat of FX activation by FIXa in the Xase complex (FVIIIa, PC/PS vesicles, Ca2+) worked out at 4.9 s⁻¹.
In the same order, the values of B18 are 0.0292 µM and 10.6 s⁻¹.
In the same order, the values of B8 are 0.0188 µM and 1.4 s⁻¹.
Regarding B19, the kcat/KM (M^-1s^-1), FX activation by FIXa in the Xase complex amounted to 3.4e+08 M⁻¹ s⁻¹ and the kcat/KM for FX activation (Xase assay with FVIIIa, PC/PS vesicles, Ca2+) turned out to be 3.4e+08 M⁻¹ s⁻¹.
For B9, the KM (nM); Catalytic activity of FIXa variants (KM) was 96.5 nM and the kcat of FX activation by FIXa in the Xase complex (FVIIIa, PC/PS vesicles, Ca2+) amounted to 1.8 s⁻¹.
Take B10: the KM turned out to be 0.0474 µM; the KM (nM); Catalytic activity of FIXa variants (KM) was 62.2 nM; the kcat of FX activation by FIXa in the Xase complex (FVIIIa, PC/PS vesicles, Ca2+) was found to be 3.4 s⁻¹; the kcat/KM was found to be 9.7e+07 M⁻¹ s⁻¹.
As for B11, the KM was found to be 0.0281 µM and the kcat of FX activation by FIXa in the Xase complex (FVIIIa, PC/PS vesicles, Ca2+) was 3.4 s⁻¹.

The next data set concerns the target Factor X (FX), substrate zymogen, P00742.
Take B12: the “catalytic activity (kcat/KM) for activation of FX in the Xase complex (FVIIIa, PC/PS vesicles, Ca2+), fluorogenic FXa read-out” value (“catalytic activity (kcat/KM)” below) is given as “displayed some of the greatest increases in catalytic activity”.
Consider B16, for which the “catalytic activity (kcat/KM)” value is given as “improved activity when combined with other mutations”.
Still for that read-out and setting: the value for B17 was “displayed some of the greatest increases in catalytic activity”; that for B18 was “improved activity when combined with other mutations”.
Regarding B19, the “catalytic activity (kcat/KM)” value is “displayed some of the greatest increases in catalytic activity”.

A further data set concerns the target Factor X, P00742.
As to B12, the KM (Catalytic activity of FIXa variants) turned out to be 0.0455 µM.
The same measure, in the same setting: the value for B19 was 0.0142 µM.

The target in the next data set is plasma purified human antithrombin III (AT-III) in complex with full-length unfractionated heparin (UFH).
B13 came in with a K0.5-mut/K0.5-wt above 517 fold.
Still for that read-out and setting: to B20 belongs above 517 fold; to B21, above 517 fold; to B14, above 517 fold.
The same measure, in the same setting: the value for B22 was above 517 fold; that for B23 was 396 fold; that for B24 was 252 fold.
For the protein B15, the K0.5-mut/K0.5-wt was above 517 fold.
Take B25: the K0.5-mut/K0.5-wt was determined as 1.4 fold.
Still for that read-out and setting: the value for B26 was above 517 fold.
On the same count and under the same terms, to B27 belongs 2.1 fold; to B28, 501 fold.

The target in another data set is antithrombin III (plasma purified human AT-III), in complex with unfractionated heparin.
The protein B12 returned a K0.5 of 5.88 µM.
B19 registered a K0.5 of 3.46 µM and a K0.5-mut/K0.5-wt of 179.

The next data set concerns the target plasma purified human AT-III (antithrombin III), in complex with full-length unfractionated heparin (AT-III/UFH).
For B1, the K0.5-mut/K0.5-wt (against Catalyst Biosciences WT FIXa) was above 517.
